Laboratory results taken from article PMC8592465.

Key:
[1] = target: GfcC-biotin (from pMCSG7, His6-tag removed, biotinylated) (Escherichia coli O127:H6 str. E2348/69) (UniProt P75883); assay: BLI; biotinylated GfcC on streptavidin sensor, GfcB (C-terminal His6, pETBlue2) in solution 0.1-1.6 μM, 25°C, 20 mM Tris-HCl pH 7.5, 150 mM NaCl, 0.1 mg/mL BSA; fit 1:1 and 1:1 with conformational change
[2] = target: GfcD-biotin (from pBH31, His-tag removed, biotinylated) (Escherichia coli O127:H6 str. E2348/69) (UniProt P75882); assay: BLI; biotinylated GfcD on streptavidin sensor, GfcB, GfcC or GfcBC in solution 3.75-60 μM, 25°C, 20 mM Tris-HCl pH 7.5, 150 mM NaCl, 0.1 mg/mL BSA, 0.02% DDM; 1:1 model
[3] = target: GfcD (expressed from pBH31, residues 22-698, His-tag removed by TEV) (Escherichia coli O127:H6 str. E2348/69) (UniProt P75882); assay: ITC; 160 μM GfcB-GfcC complex injected into 20 μM GfcD, 25°C, 20 mM Tris-HCl pH 7.5, 150 mM NaCl, 0.02% DDM; 1:1 model, n held at 1.0
[4] = target: His6-GfcB (from pMCSG7, tag kept) (Escherichia coli O127:H6 str. E2348/69) (UniProt P75884); assay: cross-linking; purified proteins mixed at 5 μM in 20 mM Hepes, 150 mM NaCl, 0.06% DDM pH 7.5, cross-linked with DSP 1 hour at room temperature, SDS-PAGE, blots with anti-polyhistidine and anti-GfcC
[5] = target: GfcB-biotin (from pMCSG7, His6-tag removed, biotinylated) (Escherichia coli O127:H6 str. E2348/69) (UniProt P75884); assay: BLI; biotinylated GfcB on streptavidin sensor, GfcC in solution 0.2-1.6 μM, 25°C, 20 mM Tris-HCl pH 7.5, 150 mM NaCl, 0.1 mg/mL BSA; fit 1:1 and 1:1 with conformational change
[6] = target: GfcC (expressed from pMCSG7 without signal sequence, His6-tag removed) (Escherichia coli O127:H6 str. E2348/69) (UniProt P75883); assay: ITC; 100 μM GfcB injected into 10 μM GfcC, 25°C, 20 mM Tris-HCl pH 7.5, 150 mM NaCl; 1:1 model

GfcB with C-terminal His6-tag expressed from pETBlue2(gfcB) (from UniProt P75884 16-214) (natural protein)
KD (1:1 with conformational change, binding step) [1]: 407 nM | Kd [1]: 175 nM | ka1 (1:1 with conformational change, binding step) [1]: 80400 M⁻¹ s⁻¹ | kd1 (1:1 with conformational change, binding step) [1]: 0.0328 s⁻¹ | kd2 (1:1 with conformational change, conformational step) [1]: 0.0107 s⁻¹ | koff [1]: 0.0126 s⁻¹ | kon [1]: 71700 M⁻¹ s⁻¹

GfcB-GfcC heterodimer (from UniProt P75884 16-214; P75883 23-248) (complex)
Kd [2]: 9160 nM | koff [2]: 0.00716 s⁻¹ | kon [2]: 781 M⁻¹ s⁻¹ | Kd [3]: 28400 nM | dH [3]: -7.24 kcal/mol

His6-GfcB (from pMCSG7, tag kept) (from UniProt P75884 16-214) (natural protein)
stoichiometry N [4]: 2

GfcC (expressed from pMCSG7 without signal sequence, His6-tag removed) (from UniProt P75883 23-248) (natural protein)
Kd [2]: 257000 nM | koff [2]: 0.0286 s⁻¹ | kon [2]: 111 M⁻¹ s⁻¹ | KD (1:1 with conformational change, binding step) [5]: 1010 nM | Kd [5]: 374 nM | ka1 (1:1 with conformational change, binding step) [5]: 59900 M⁻¹ s⁻¹ | kd1 (1:1 with conformational change, binding step) [5]: 0.0603 s⁻¹ | kd2 (1:1 with conformational change, conformational step) [5]: 0.015 s⁻¹ | koff [5]: 0.0196 s⁻¹ | kon [5]: 52300 M⁻¹ s⁻¹

GfcB (expressed from pMCSG7 without signal sequence, His6-tag removed) (from UniProt P75884 16-214) (natural protein)
Kd [6]: 99.8 nM | dH [6]: -6.92 kcal/mol | stoichiometry N [6]: 1.01 | Kd [2]: 14200 nM | koff [2]: 0.00926 s⁻¹ | kon [2]: 652 M⁻¹ s⁻¹
